Patent publication US20230250176A1 (DRAGONFLY THERAPEUTICS, published 2023)

Columns and labels:
[1] = biological target: T1, purified recombinant human EGFR (human, UniProt P00533 25-645); assay: SPR (Biacore 8K), 37 C
T1 construct: the whole entry is named; also called recombinant human epidermal growth factor receptor

[2] = biological target: T2, human EGFR (wild type) on cells (human, UniProt P00533 25-1210); assay: cell-based or functional assay
[3] = biological target: T1, purified recombinant human EGFR; assay: SPR (Biacore 8K), 37 C; remark: listed apart in the source
[4] = biological target: T2, human EGFR (wild type) on cells; assay: cell-based or functional assay; remark: listed apart in the source
[5] = biological target: T3, human EGFR T790M, L858R on NCI-H1975 cells (human, UniProt P00533 25-1210); assay: cell-based or functional assay
[6] = biological target: human EGFR L747-E749del, A750P on HCC4006 cells (human, UniProt P00533 25-1210); assay: cell-based or functional assay
[7] = biological target: T2, human EGFR (wild type) on cells; assay: cell-based or functional assay; remark: listed apart in the source
[8] = biological target: T3, human EGFR T790M, L858R on NCI-H1975 …; assay: cell-based or functional assay; remark: listed apart in the source
[9] = biological target: T2, human EGFR (wild type) on cells; assay: cell-based or functional assay; remark: listed apart in the source
[10] = biological target: T3, human EGFR T790M, L858R on NCI-H1975 …; assay: cell-based or functional assay; remark: listed apart in the source
human NKG2D on cells [11] = biological target: T4, human NKG2D on cells (human, UniProt P26718 1-216); assay: cell-based or functional assay
T4 sequence (looked up): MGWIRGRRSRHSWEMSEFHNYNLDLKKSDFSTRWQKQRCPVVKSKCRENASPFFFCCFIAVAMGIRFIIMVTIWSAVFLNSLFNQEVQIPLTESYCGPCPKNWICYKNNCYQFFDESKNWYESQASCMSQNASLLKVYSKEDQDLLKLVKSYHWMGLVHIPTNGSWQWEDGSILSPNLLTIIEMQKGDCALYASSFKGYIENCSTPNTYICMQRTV

human NKG2D on cells [12] = biological target: T4, human NKG2D on cells; assay: cell-based or functional assay; remark: listed apart in the source
[13] = biological target: T2, human EGFR (wild type) on cells; assay: cell-based or functional assay; remark: listed apart in the source
[14] = biological target: T3, human EGFR T790M, L858R on NCI-H1975 …; assay: cell-based or functional assay; remark: listed apart in the source
[15] = biological target: T2, human EGFR (wild type) on cells; assay: cell-based or functional assay; remark: listed apart in the source
[16] = biological target: T2, human EGFR (wild type) on cells; assay: flow cytometry, BT474 cells
[17] = biological target: T2, human EGFR (wild type) on cells; assay: flow cytometry, HCT116 cells
[18] = biological target: T2, human EGFR (wild type) on cells; assay: flow cytometry, NCI-H292 cells
[19] = biological target: T2, human EGFR (wild type) on cells; assay: flow cytometry, NCI-H1703 cells
[20] = biological target: T3, human EGFR T790M, L858R on NCI-H1975 …; assay: flow cytometry, NCI-H1975 cells
[21] = biological target: T2, human EGFR (wild type) on cells; assay: flow cytometry, NCI-H2172 cells
[22] = biological target: T2, human EGFR (wild type) on cells; assay: flow cytometry, Detroit 562 cells
[23] = biological target: T5, purified recombinant human FcRn (human, UniProt P55899 24-297; P61769 21-119); assay: SPR (Biacore 8K), 25 C, pH 6.0; pH 6.0
T5 construct: also called neonatal Fc receptor

[24] = biological target: T6, cynomolgus monkey EGFR on primary cynomolgus monkey esophageal epithelial cells (cynomolgus monkey, UniProt A0A2K5WK39 25-1210); assay: flow cytometry on primary cynomolgus monkey esophageal epithelial cells, anti-human Fc-PE secondary
T6 construct: whole, on cells; also called cynomolgus monkey EGFR-expressing cells

human NKG2D on cells [25] = biological target: T4, human NKG2D on cells; assay: flow cytometry with AF647-conjugated test article on KHYG-1 parental cells (NKG2D, no CD16a); KHYG-1 parental cell line (NKG2D+, CD16a-), titrated from 800 nM

fold weaker affinity than panitumumab [1]: 4.7 fold
EC50 of growth inhibition at 72 hours (IncuCyte), human primary keratinocytes, against cetuximab [2]: 60 fold
EC50 of inhibition of EGF-induced EGFR phosphorylation (AlphaLISA), human primary keratinocytes [2]: 5.3 nM
EC50 of tumor cell growth inhibition over 72 hours (IncuCyte), NCI-H292-NucLight Green or FaDu cells [2]: 1.7 to 3.9 nM
Kd [3]: 4.7 nM
koff [3]: 0.00095 s⁻¹
kon [3]: 200000 M⁻¹ s⁻¹
EC50, NK cell degranulation and cytokine production, human PBMCs with 786-O [9]: 0.089 nM
EC50, NK cell degranulation and cytokine production, human PBMCs with NCI-H1975 [10]: 0.067 nM
EC50, IFNγ release from NK cells (AlphaLISA) in the presence of HT29 cells (human NKG2D on cells [11]): 1.6 nM
EC50, IFNγ release from NK cells (AlphaLISA) in the presence of NCI-H1975 cells (human NKG2D on cells [11]): 0.88 nM
EC50, CD8+ T-cell lysis of 786-O cells (human NKG2D on cells [12]): 0.43 nM
EC50, CD8+ T-cell lysis of NCI-H1975 cells (human NKG2D on cells [12]): 0.17 nM
EC50, ADCP by M0 macrophages, 786-O [13]: 2.2 nM
EC50, ADCP by M0 macrophages, NCI-H1975 [14]: 2.3 nM
EC50, NK-dependent inhibition at 72 hours, HT29 tumor cells [15]: 0.063 nM
EC50 [16]: 0.77 nM
Max FOB [16]: 41 fold over background
EC50 [17]: 1.4 nM
Max FOB [17]: 300 fold over background
EC50 [18]: 5.3 nM
Max FOB [18]: 800 fold over background
EC50 [19]: 4.6 nM
Max FOB [19]: 730 fold over background
EC50 [20]: 2.3 nM
Max FOB [20]: 170 fold over background
EC50 [21]: 1 nM
Max FOB [21]: 140 fold over background
EC50 [22]: 1.6 nM
Max FOB [22]: 490 fold over background
Kd [23]: 1000 nM
EC50 [24]: 1.09 nM
EC50 (human NKG2D on cells [25]): > 600 nM
B1: EGFR-TriNKET (bispecific antibody, human IgG1, kappa)
chain: DIQMTQSPSSLSASVGDRVTITCQASQDISNYLNWYQQKPGKAPKLLIYDASNLETGVPSRFSGSGSGTDFTFTISSLQPEDIATYYCQHFRHLPLAFGCGTKVEIKGGGGSGGGGSGGGGSGGGGSQVQLQESGPGLVKPSETLSLTCTVSGGSVSSGDYYWTWIRQSPGKCLEWIGHIYYSGNTNYNPRLKSRLTISIDTSKTQFSLKLSSVTAADTAIYYCVRDRVTGAFDIWGQGTMVTVSSGSDKTHTCPPCPAPELLGGPSVFLFPPKPKDTLMISRTPEVTCVVVDVSHEDPEVKFNWYVDGVEVHNAKTKPREEQYNSTYRVVSVLTVLHQDWLNGKEYKCKVSNKALPAPIEKTISKAKGQPREPRVYTLPPCRDELTKNQVSLTCLVKGFYPSDIAVEWESNGQPENNYKTTPPVLVSDGSFTLYSKLTVDKSRWQQGNVFSCSVMHEALHNHYTQKSLSLSPG
heavy: EVQLVESGGGLVKPGGSLRLSCAASGFTFSSYSMNWVRQAPGKGLEWVSSISSSSSYIYYADSVKGRFTISRDNAKNSLYLQMNSLRAEDTAVYYCARGAPIGAAAGWFDPWGQGTLVTVSSASTKGPSVFPLAPSSKSTSGGTAALGCLVKDYFPEPVTVSWNSGALTSGVHTFPAVLQSSGLYSLSSVVTVPSSSLGTQTYICNVNHKPSNTKVDKKVEPKSCDKTHTCPPCPAPELLGGPSVFLFPPKPKDTLMISRTPEVTCVVVDVSHEDPEVKFNWYVDGVEVHNAKTKPREEQYNSTYRVVSVLTVLHQDWLNGKEYKCKVSNKALPAPIEKTISKAKGQPREPQVCTLPPSRDELTENQVSLTCLVKGFYPSDIAVEWESNGQPENNYKTTPPVLDSDGSFFLYSWLTVDKSRWQQGNVFSCSVMHEALHNHYTQKSLSLSPG
light: DIQMTQSPSSVSASVGDRVTITCRASQGISSWLAWYQQKPGKAPKLLIYAASSLQSGVPSRFSGSGSGTDFTLTISSLQPEDFATYYCQQGVSFPRTFGGGTKVEIKRTVAAPSVFIFPPSDEQLKSGTASVVCLLNNFYPREAKVQWKVDNALQSGNSQESVTEQDSKDSTYSLSSTLTLSKADYEKHKVYACEVTHQGLSSPVTKSFNRGEC
notes: also called EGFR-TriNKET-3
EC50, short-term NK cell-mediated cytotoxicity (DELFIA), 786-O [4]: 0.048 nM
EC50, short-term NK cell-mediated cytotoxicity (DELFIA), BT474 [4]: 0.29 nM
EC50, short-term NK cell-mediated cytotoxicity (DELFIA), Detroit 562 [4]: 0.058 nM
EC50, short-term NK cell-mediated cytotoxicity (DELFIA), FaDu [4]: 0.011 nM
EC50, short-term NK cell-mediated cytotoxicity (DELFIA), HCT116 [4]: 0.054 nM
EC50, short-term NK cell-mediated cytotoxicity (DELFIA), HT29 [4]: 0.019 nM
EC50, short-term NK cell-mediated cytotoxicity (DELFIA), KYSE-30 [4]: 0.0053 nM
EC50, short-term NK cell-mediated cytotoxicity (DELFIA), NCI-H292 [4]: 0.0088 nM
EC50, short-term NK cell-mediated cytotoxicity (DELFIA), NCI-H1703 [4]: 0.022 nM
EC50, short-term NK cell-mediated cytotoxicity (DELFIA), NCI-H2172 [4]: 0.079 nM
EC50, short-term NK cell-mediated cytotoxicity (DELFIA), NCI-H1975 [5]: 0.1 nM
EC50, short-term NK cell-mediated cytotoxicity (DELFIA), HCC4006 [6]: 0.092 nM
EC50, long-term NK cell-mediated cytotoxicity (IncuCyte, 72 h, 50% human serum), KYSE-30, NK CD16a F/F (n = 2) [7]: 0.015 nM
EC50, long-term NK cell-mediated cytotoxicity, 786-O, NK CD16a F/F (n = 2) [7]: 0.24 nM
EC50, long-term NK cell-mediated cytotoxicity, 786-O, NK CD16a V/F (n = 1) [7]: 0.15 nM
EC50, long-term NK cell-mediated cytotoxicity, HCT116, NK CD16a F/F (n = 2) [7]: 0.28 nM
EC50, long-term NK cell-mediated cytotoxicity, HCT116, NK CD16a V/V (n = 1) [7]: 0.21 nM
EC50, long-term NK cell-mediated cytotoxicity, KYSE-30, NK CD16a V/F (n = 1) [7]: 0.013 nM
EC50, long-term NK cell-mediated cytotoxicity, NCI-H1975, NK CD16a F/F (n = 2) [8]: 0.23 nM
EC50, long-term NK cell-mediated cytotoxicity, NCI-H1975, NK CD16a V/F (n = 1) [8]: 0.09 nM
